Target: recombinant human FOXO3a (human, UniProt O43524 1-673)
Assay: pull-down

Chain of recombinant human FOXO3a (O43524 whole entry): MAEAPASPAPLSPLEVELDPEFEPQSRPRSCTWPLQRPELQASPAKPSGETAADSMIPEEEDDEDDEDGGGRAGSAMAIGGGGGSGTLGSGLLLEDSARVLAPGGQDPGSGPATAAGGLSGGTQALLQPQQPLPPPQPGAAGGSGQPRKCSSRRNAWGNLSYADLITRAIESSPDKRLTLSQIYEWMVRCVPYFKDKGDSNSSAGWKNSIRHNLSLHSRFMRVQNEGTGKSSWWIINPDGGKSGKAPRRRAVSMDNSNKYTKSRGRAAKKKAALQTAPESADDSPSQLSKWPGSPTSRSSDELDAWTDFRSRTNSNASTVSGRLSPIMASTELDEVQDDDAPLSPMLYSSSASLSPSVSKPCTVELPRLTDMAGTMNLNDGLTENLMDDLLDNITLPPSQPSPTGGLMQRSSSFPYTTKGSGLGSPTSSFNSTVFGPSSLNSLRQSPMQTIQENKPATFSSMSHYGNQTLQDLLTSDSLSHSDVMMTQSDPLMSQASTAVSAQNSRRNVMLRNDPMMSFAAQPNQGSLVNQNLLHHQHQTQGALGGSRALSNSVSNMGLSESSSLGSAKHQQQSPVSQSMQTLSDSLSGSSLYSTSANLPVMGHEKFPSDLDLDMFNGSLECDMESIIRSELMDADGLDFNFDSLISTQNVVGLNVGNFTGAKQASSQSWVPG

- binding result: binds
B1: GST-ATM fragment spanning 2,842–3,056 aa (domain or fragment)
chain: PAIWFEKRLAYTRSVATSSIVGYILGLGDRHVQNILINEQSAELVHIDLGVAFEQGKILPTPETVPFRLTRDIVDGMGITGVEGVFRRCCEKTMEVMRNSQETLLTIVEVLLYDPLFDWTMNPLKALYLQQRPEDETELHPTLNADDQECKRNLSDIDQSFNKVAERVLMRLQEKLKGVEEGTVLSVGGQVNLLIQQAIDPKNLSRLFPGWKAWV

— paper PMC5003812 (Cell Reports, 2016)
